The values that follow come from paper PMC6086726.

The assay addresses Type I-F Csy surveillance complex of Pseudomonas aeruginosa PA14 (Csy1-4 with crRNA) (Pseudomonas aeruginosa PA14) (UniProt Q02ML9). The assay can be described thus: SPR. For orientation: SPR reads the build-up and loss of mass on a sensor chip optically.

For the substance “AcrIF4 (gene 37 from phage JBD26) (natural protein)”, the Kd was determined as 400 nM.

For orientation: Kd means the free concentration of one partner at which half of the binding sites on the other are occupied at equilibrium, for simple one-to-one binding.
